Article PMC5493754, “Myosin 7 and its adaptors link cadherins to actin” (Nature Communications, 2017)

T1: YFP-Full length (FL)-harmonin (harmonin-a1) (human, UniProt Q9Y6N9-1 1-552)
T1 construct: Harmonin-a1 (USH1C), human, residues 1-552 of UniProt Q9Y6N9-1; also called ^YFPFL (isoA); ^YFPFL; source: E. coli BL21 (DE3) Rosetta, purified (Glutathione Sepharose 4B, size-exclusion chromatography)
T1 sequence (looked up): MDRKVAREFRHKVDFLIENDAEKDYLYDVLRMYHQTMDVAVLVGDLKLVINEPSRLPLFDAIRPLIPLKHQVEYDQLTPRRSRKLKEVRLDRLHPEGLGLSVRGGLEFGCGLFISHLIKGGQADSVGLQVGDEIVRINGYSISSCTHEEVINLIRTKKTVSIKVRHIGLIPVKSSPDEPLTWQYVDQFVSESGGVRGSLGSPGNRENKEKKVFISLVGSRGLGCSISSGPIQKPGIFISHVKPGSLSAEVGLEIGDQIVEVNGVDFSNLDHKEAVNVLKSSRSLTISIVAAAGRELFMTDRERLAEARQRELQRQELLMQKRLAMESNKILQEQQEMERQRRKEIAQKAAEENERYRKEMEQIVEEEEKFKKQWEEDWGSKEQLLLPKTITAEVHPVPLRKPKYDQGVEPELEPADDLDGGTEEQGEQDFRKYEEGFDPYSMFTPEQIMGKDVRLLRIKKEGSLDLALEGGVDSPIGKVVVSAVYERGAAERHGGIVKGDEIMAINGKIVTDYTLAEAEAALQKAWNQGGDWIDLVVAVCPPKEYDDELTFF

T2: Myosin 7a MF1.SH3 (human, UniProt Q13402-1 991-1692, residues 1523-1560 were deleted from MF1)
T2 construct: Myosin 7a, human, N-terminal MyTH4-FERM domain and SH3, residues 991-1692 of UniProt Q13402-1; residues 1523-1560 deleted; Thrombin site of the vector replaced by an SSG linker; also called M7a MF1.SH3; Myo7a MF1.SH3; source: E. coli (BL21-AI, BL21 (DE3) Rosetta or BL21-Gold (DE3)), purified (Histrap, CaptoQ, gel filtration)
T2 sequence (looked up): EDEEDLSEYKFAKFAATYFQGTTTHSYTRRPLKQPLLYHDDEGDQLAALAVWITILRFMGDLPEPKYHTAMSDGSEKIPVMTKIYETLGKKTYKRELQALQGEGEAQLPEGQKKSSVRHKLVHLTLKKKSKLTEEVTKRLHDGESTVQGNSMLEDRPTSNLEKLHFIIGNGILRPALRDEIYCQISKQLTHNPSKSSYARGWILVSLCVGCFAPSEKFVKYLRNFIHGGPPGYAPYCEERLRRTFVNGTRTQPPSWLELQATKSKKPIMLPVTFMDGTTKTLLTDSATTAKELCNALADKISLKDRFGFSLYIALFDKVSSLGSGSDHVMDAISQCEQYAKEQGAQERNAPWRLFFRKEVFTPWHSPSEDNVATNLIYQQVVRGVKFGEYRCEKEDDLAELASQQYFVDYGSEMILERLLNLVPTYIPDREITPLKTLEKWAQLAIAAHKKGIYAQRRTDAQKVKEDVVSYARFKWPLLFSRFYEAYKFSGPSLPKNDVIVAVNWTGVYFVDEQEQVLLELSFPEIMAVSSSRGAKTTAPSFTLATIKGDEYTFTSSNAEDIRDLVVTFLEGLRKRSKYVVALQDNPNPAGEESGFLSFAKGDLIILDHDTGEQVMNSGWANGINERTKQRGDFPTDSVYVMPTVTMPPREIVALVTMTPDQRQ

T3: Myosin 7b MF1.SH3 (human, UniProt Q6PIF6 958-1586)
T3 construct: also called M7b MF1.SH3; Myo7b MF1.SH3; source: E. coli (BL21-AI, BL21 (DE3) Rosetta or BL21-Gold (DE3)), purified (Histrap, CaptoQ, gel filtration)
T3 sequence: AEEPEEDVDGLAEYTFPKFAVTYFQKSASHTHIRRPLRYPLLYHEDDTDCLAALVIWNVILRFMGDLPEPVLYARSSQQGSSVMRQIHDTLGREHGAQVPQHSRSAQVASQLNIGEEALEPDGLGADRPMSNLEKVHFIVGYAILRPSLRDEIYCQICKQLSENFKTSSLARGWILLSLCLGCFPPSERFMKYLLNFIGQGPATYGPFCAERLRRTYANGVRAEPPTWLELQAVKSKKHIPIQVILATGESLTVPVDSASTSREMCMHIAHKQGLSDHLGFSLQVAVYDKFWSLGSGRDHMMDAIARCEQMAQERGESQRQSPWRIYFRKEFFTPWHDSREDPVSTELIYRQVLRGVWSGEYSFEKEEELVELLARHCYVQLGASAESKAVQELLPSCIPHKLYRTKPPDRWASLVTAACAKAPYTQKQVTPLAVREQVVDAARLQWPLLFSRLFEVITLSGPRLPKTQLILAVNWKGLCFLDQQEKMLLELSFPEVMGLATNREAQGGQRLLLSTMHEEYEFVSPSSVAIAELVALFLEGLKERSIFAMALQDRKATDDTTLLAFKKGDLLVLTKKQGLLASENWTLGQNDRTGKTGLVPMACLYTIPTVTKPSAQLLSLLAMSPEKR

T4: YFP-Myosin 7b MF1.SH3 (human, UniProt Q6PIF6 958-1586)
T4 construct: Myosin 7b, human, MF1.SH3, residues 958-1586 of UniProt Q6PIF6; pET14-YFP vector; also called ^YFPM7b MF1.SH3; source: E. coli (BL21-AI, BL21 (DE3) Rosetta or BL21-Gold (DE3)), purified (Histrap, CaptoQ, gel filtration)
T4 sequence: T3 sequence

T5: Myo7a MF1.SH3 (Mus musculus, UniProt P97479)
T5 chain: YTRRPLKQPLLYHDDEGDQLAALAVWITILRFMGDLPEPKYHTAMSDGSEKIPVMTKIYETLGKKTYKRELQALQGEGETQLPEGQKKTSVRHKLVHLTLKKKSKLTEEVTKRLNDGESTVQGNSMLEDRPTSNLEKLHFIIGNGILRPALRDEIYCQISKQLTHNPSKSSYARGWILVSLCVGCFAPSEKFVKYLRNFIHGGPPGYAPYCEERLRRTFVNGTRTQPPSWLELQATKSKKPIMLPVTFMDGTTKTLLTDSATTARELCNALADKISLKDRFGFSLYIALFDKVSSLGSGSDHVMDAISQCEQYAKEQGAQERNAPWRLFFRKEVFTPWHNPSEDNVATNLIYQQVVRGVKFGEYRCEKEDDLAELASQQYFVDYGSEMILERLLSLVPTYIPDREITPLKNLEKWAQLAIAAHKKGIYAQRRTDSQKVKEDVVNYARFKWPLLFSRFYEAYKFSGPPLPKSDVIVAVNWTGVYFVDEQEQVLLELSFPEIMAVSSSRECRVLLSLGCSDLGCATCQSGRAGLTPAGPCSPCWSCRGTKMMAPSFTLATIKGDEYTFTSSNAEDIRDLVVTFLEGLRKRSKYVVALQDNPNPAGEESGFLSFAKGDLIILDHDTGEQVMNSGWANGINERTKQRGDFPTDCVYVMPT

B1: Harmonin NPDZ1 (non-fluorescent, as used in MST and SEC-MALS) (domain or fragment, human, UniProt Q9Y6N9-1 1-197, looked up)
chain: MDRKVAREFRHKVDFLIENDAEKDYLYDVLRMYHQTMDVAVLVGDLKLVINEPSRLPLFDAIRPLIPLKHQVEYDQLTPRRSRKLKEVRLDRLHPEGLGLSVRGGLEFGCGLFISHLIKGGQADSVGLQVGDEIVRINGYSISSCTHEEVINLIRTKKTVSIKVRHIGLIPVKSSPDEPLTWQYVDQFVSESGGVRG
notes: Harmonin-a1 (USH1C), human, N-terminal domain and PDZ1, residues 1-197 of UniProt Q9Y6N9-1; source: E. coli BL21 (DE3) Rosetta, purified (Glutathione Sepharose 4B, size-exclusion chromatography)
B2: SANS_(CEN-PBM) (domain or fragment, UniProt Q495M9 300-461, looked up)
chain: DSGHDSLFTRPGLGTMVFRRNYLSSGLHGLGREDGGLDGVGAPRGRLQSSPSLDDDSLGSANSLQDRSCGEELPWDELDLGLDEDLEPETSPLETFLASLHMEDFAALLRQEKIDLEALMLCSDLDLRSISVPLGPRKKILGAVRRRRQAMERPPALEDTEL
notes: source: E. coli (BL21-AI, BL21 (DE3) Rosetta or BL21-Gold (DE3)), purified (Histrap, CaptoQ, gel filtration)
B3: ANKS4B_(CEN-PBM) with YFP-harmonin NPDZ1.PDZ2 (complex)
chain 1: SVHHESILNRPGLGSIVFRRNRISSPEDISDSKREFGFKLPSELLQRQGASEADEGAADEEGEENGLKDDLPWDDDEVEWEEDVVDATPLEVFLLSQHLEEFLPIFKREQIDLEALLLCSDEDLQSIQMQLGPRKKVLNAINRRKQVLQQPGQLVDTSL
chain 2: MDRKVAREFRHKVDFLIENDAEKDYLYDVLRMYHQTMDVAVLVGDLKLVINEPSRLPLFDAIRPLIPLKHQVEYDQLTPRRSRKLKEVRLDRLHPEGLGLSVRGGLEFGCGLFISHLIKGGQADSVGLQVGDEIVRINGYSISSCTHEEVINLIRTKKTVSIKVRHIGLIPVKSSPDEPLTWQYVDQFVSESGGVRGSLGSPGNRENKEKKVFISLVGSRGLGCSISSGPIQKPGIFISHVKPGSLSAEVGLEIGDQIVEVNGVDFSNLDHKEAVNVLKSSRSLTISIVAAAGRELFMTDR
notes: ANKS4B, human, residues 259-417 of UniProt Q8N8V4; as m43; Harmonin-a1 (USH1C), human, residues 1-301 of UniProt Q9Y6N9-1; as m31; also called ANKS4b+^YFPNPDZ1.PDZ2; ^YFPNPDZ1.PDZ2+ANKS4B_(CEN-PBM); source: purified E. coli proteins mixed
B4: ANKS4B_(CEN-PBM) (domain or fragment)
chain: B3 chain 1
notes: ANKS4B, human, residues 259-417 of UniProt Q8N8V4; source: E. coli (BL21-AI, BL21 (DE3) Rosetta or BL21-Gold (DE3)), purified (Histrap, CaptoQ, gel filtration)
B5: YFP-SANS_(CEN-PBM) saturated with harmonin NPDZ1.PDZ2 (complex)
chain 1: B2 chain
chain 2: B3 chain 2
notes: SANS (USH1G), residues 300-461 of UniProt Q495M9; as m40; Harmonin-a1 (USH1C), human, residues 1-301 of UniProt Q9Y6N9-1; as m30; also called ^YFPSANS_(CEN-PBM)+NPDZ1.PDZ2; source: purified E. coli proteins mixed (saturating NPDZ1.PDZ2); not shown: YFP, N-terminal, kept
B6: ANKS4B CEN-PBM (protein)
chain: VEEDDDVQHESILNRPGLGSIVFSRNRVLDFEDISDSKRELGFKMPSELFQRQGAAGTVEEEEEEEEEEEEEKREANGTAGDLPWDEEEVEWEEDAVDATPLEVFLQSQHLEEFLPIFMREQIDLEALLLCSDEDLQNIHMQLGPRKKVLSAIDKRKQVLQQPGQLVDTSL

What was measured:
[1] = target: T1, YFP-Full length (FL)-harmonin …; assay: MST; as a1 but 150 mM NaCl (for FL-Harmonin-a); YFP-fused partner constant at 100 nM, non-fluorescent protein titrated; conditions: both partners purified
SANS_(CEN-PBM) = target: B2; assay: SEC-MALS; Superdex 10/300 Increase; 20 mM Tris pH 7.0, 100 mM NaCl, 1 mM EGTA, 0.5 mM TCEP; samples at about 20 mg/ml; conditions: both partners purified
Myosin 7a MF1.SH3 [2] = target: T2, Myosin 7a MF1.SH3; assay: as above; conditions: both partners purified
Myosin 7b MF1.SH3 = target: T3, Myosin 7b MF1.SH3; assay: MST; YFP-fused partner held together with a third protein (saturating concentrations; competition experiments), non-fluorescent protein titrated; conditions: both partners purified
YFP-Myosin 7b MF1.SH3 = target: T4, YFP-Myosin 7b MF1.SH3; assay: MST; YFP-fused partner constant at 100 nM, non-fluorescent protein titrated (16 two-fold dilutions); 20 mM Hepes pH 7.0, 100 mM NaCl, 1 mM EGTA, 0.5 mM TCEP, 0.05% Tween 20; Monolith NT.115; conditions: both partners purified
Myosin 7a MF1.SH3 [3] = target: T2, Myosin 7a MF1.SH3; assay: MST; YFP-fused partner held together with a third protein (saturating concentrations; competition experiments), non-fluorescent protein titrated; conditions: both partners purified
Myo7a MF1.SH3 = target: T5, Myo7a MF1.SH3

Binder: B1
- Kd [1]: 11.3 µM
- stoichiometry N (SANS_(CEN-PBM)): 1

Binder: B2
- stoichiometry N (Myosin 7a MF1.SH3 [2]): 1

Binder: B3
- Kd (Myosin 7b MF1.SH3): 4 µM

Binder: B4
- Kd (YFP-Myosin 7b MF1.SH3): 2.9 ± 0.03 µM

Binder: B5
- Kd (Myosin 7a MF1.SH3 [3]): 0.386 µM

Binder: B6
- Kd (Myo7a MF1.SH3): ~5 µM
